Measured values from US20180280412A1.

Target: Ub-AMC substrate

DUBs activity on Ub-AMC substrate: 3 fold
Substance: purified 26S proteasome (enzyme)
